The source of these data is patent US10428140B2, “Anti-EphA4 antibody” (EISAI R&D MANAGEMENT CO., LTD., priority 2015, dated 2019).

The labels stand for the following.
B1: 133 (antibody, V domains shown)
VH: QVQLVQSGSELKKPGASVKVSCKASGYTFTDYSMHWVRQAPGQGLEWMGWINTETGEPTYAQGFTGRFVFSLDTSVSTAYLQISSLKAEDTAVYYCARIPLYYYGSRYWYFDVWGQGTTVTVSS
VL: EIVMTQSPATLSVSPGERATLSCRASENIYRNLAWYQQKPGQSPRLLIYAATNLADGIPARFSGSGSGTEYTLTISSLQSEDFAVYYCQHFWGTPWTFGQGTKVEIK
modifications: synthetic humanized antibody heavy chain variable region sequence; synthetic humanized antibody light chain variable region sequence
B2: 132 (antibody, V domains shown)
VH: B1 VH with V2I, E46K
VL: B1 VL
modifications: synthetic humanized antibody heavy chain variable region sequence; synthetic humanized antibody light chain variable region sequence
B3: 75 (antibody)
VH: B1 VH
VL: DIQMTQSPSSLSASVGDRVTITCRASENIYRNLAWYQQKPGKAPKLLVYAATNLADGVPSRFSGSGSGTDYTLTISSLQPEDFATYYCQHFWGTPWTFGQGTKVEIK
chain: ASTKGPSVFPLAPSSKSTSGGTAALGCLVKDYFPEPVTVSWNSGALTSGVHTFPAVLQSSGLYSLSSVVTVPSSSLGTQTYICNVNHKPSNTKVDKRVEPKSCDKTHTCPPCPAPPAAAPSVFLFPPKPKDTLMISRTPEVTCVVVDVSHEDPEVQFNWYVDGVEVHNAKTKPREEQFNSTFRVVSVLTVVHQDWLNGKEYKCKVSNKGLPAPIEKTISKTKGQPREPQVYTLPPSREEMTKNQVSLTCLVKGFYPSDIAVEWESNGQPENNYKTTPPMLDSDGSFFLYSKLTVDKSRWQQGNVFSCSVMHEALHNHYTQKSLSLSPG
modifications: synthetic humanized antibody heavy chain variable region sequence; synthetic humanized antibody light chain variable region sequence; synthetic antibody constant region sequence
B4: 78 (antibody, V domains shown)
VH: B1 VH with E46K, Q62D, G63D, T65K
VL: B3 VL
modifications: synthetic humanized antibody heavy chain variable region sequence; synthetic humanized antibody light chain variable region sequence
B5: 134 (antibody, V domains shown)
VH: B1 VH with E46K
VL: B1 VL
modifications: synthetic humanized antibody heavy chain variable region sequence; synthetic humanized antibody light chain variable region sequence
B6: 77 (antibody, V domains shown)
VH: B1 VH with Q62D, G63D, T65K
VL: B3 VL
modifications: synthetic humanized antibody heavy chain variable region sequence; synthetic humanized antibody light chain variable region sequence
B7: 67 (antibody, V domains shown)
VH: B1 VH with V2I, E46K
VL: B3 VL
modifications: synthetic humanized antibody heavy chain variable region sequence; synthetic humanized antibody light chain variable region sequence
B8: 135 (antibody, V domains shown)
VH: B1 VH with Q62D, G63D, T65K
VL: B1 VL
modifications: synthetic humanized antibody heavy chain variable region sequence; synthetic humanized antibody light chain variable region sequence
B9: 76 (antibody, V domains shown)
VH: B1 VH with E46K
VL: B3 VL
modifications: synthetic humanized antibody heavy chain variable region sequence; synthetic humanized antibody light chain variable region sequence

Changes are numbered by the printed parent chain.

The target of one test is T1, human EphA10 (Homo sapiens, UniProt Q5JZY3).
T1 construct: a protein of the extracellular region of each human Eph receptor fused with the SEAP protein and the His tag; made in house; host or cells: Expi293F cells (culture supernatant)
T1 sequence (Q5JZY3 34-565 limits assumed): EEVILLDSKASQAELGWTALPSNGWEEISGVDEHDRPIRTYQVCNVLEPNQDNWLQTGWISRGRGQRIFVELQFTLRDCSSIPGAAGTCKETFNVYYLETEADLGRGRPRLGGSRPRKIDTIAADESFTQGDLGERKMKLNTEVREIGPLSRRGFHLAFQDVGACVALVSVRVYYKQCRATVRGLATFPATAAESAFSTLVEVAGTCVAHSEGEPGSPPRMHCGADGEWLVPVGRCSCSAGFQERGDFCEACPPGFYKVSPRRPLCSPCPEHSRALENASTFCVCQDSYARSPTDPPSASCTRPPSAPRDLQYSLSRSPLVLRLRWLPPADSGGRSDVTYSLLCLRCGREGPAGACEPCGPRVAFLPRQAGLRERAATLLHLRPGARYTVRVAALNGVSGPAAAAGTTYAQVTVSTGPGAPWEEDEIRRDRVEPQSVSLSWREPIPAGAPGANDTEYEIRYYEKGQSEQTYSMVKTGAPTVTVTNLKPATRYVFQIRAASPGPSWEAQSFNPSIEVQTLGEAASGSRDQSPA
As to the kind of experiment: Selectivity ELISA of humanized antibodies for human Eph receptor. The note with it: coated protein 1 nM. The class given is binding. A digest of the protocol:
(§1)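 Human Eph ECD-SEAP-His fusions, harvested after 5 days of Expi293F expression, are captured on anti-His-coated wells (1 nM final). Bound humanized antibody is detected with HRP anti-IgG and TMB at 450 nm.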
On the technique in general: In an ELISA, binding on a coated surface is turned into a signal by an enzyme label.
With B1, the “hEphA10-SEAP-: absorbance at 450 nm, percentage with respect to hEphA4-SEAP-His as 100%” value was determined as 4.7%.
Same read-out and setting: then B2, with 4.7%; and B3, with 4.4%.
In the case of B4, the “hEphA10-SEAP-: absorbance at 450 nm, percentage with respect to hEphA4-SEAP-His as 100%” value was 5.2%.
Consider B5, for which the “hEphA10-SEAP-: absorbance at 450 nm, percentage with respect to hEphA4-SEAP-His as 100%” value came out at 5.0%.
On to B6, for which the “hEphA10-SEAP-: absorbance at 450 nm, percentage with respect to hEphA4-SEAP-His as 100%” value came out at 4.5%.
On the same count and under the same terms, the result for B7 reads 4.6%.
Still for that read-out and setting: the result for B8 reads 5.1%; that for B9, 4.7%.

A further test deals with T2, human EphA5 (Homo sapiens, UniProt P54756).
T2 construct: a protein of the extracellular region of each human Eph receptor fused with the SEAP protein and the His tag; made in house; host or cells: Expi293F cells (culture supernatant)
T2 sequence (P54756 25-573 limits assumed): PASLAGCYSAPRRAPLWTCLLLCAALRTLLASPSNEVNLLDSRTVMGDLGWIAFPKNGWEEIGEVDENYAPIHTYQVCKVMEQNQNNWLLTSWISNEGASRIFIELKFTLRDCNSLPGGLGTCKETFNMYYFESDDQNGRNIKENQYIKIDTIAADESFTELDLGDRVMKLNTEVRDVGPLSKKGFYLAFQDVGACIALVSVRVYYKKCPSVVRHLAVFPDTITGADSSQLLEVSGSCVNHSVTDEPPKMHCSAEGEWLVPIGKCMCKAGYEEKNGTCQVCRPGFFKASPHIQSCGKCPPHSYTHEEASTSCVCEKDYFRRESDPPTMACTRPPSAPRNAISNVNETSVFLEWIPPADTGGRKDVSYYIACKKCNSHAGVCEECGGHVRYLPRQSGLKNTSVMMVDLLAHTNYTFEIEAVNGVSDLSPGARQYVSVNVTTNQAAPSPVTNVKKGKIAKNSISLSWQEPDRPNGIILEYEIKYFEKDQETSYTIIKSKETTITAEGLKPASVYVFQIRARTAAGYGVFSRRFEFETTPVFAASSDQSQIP
The test is described as above. The note with it: coated protein 1 nM. It counts as binding. The method, boiled down:
as §1
In the case of B1, the “hEphA5-SEAP-: absorbance at 450 nm, percentage with respect to hEphA4-SEAP-His as 100%” value came out at 4.7%.
On the same count and under the same terms, then B2, with 4.7%; and B3, with 4.7%.
Same read-out and setting: the result for B4 reads 5.1%; that for B5, 5.2%.
Turning to B6, the “hEphA5-SEAP-: absorbance at 450 nm, percentage with respect to hEphA4-SEAP-His as 100%” value amounted to 4.4%.
B7: the “hEphA5-SEAP-: absorbance at 450 nm, percentage with respect to hEphA4-SEAP-His as 100%” value stood at 4.8%.
Still for that read-out and setting: then B8, with 5.0%; and B9, with 5.3%.

Another test concerns the target T3, human EphB6 (Homo sapiens, UniProt O15197).
T3 construct: a protein of the extracellular region of each human Eph receptor fused with the SEAP protein and the His tag; made in house; host or cells: Expi293F cells
T3 sequence (O15197 32-594 limits assumed): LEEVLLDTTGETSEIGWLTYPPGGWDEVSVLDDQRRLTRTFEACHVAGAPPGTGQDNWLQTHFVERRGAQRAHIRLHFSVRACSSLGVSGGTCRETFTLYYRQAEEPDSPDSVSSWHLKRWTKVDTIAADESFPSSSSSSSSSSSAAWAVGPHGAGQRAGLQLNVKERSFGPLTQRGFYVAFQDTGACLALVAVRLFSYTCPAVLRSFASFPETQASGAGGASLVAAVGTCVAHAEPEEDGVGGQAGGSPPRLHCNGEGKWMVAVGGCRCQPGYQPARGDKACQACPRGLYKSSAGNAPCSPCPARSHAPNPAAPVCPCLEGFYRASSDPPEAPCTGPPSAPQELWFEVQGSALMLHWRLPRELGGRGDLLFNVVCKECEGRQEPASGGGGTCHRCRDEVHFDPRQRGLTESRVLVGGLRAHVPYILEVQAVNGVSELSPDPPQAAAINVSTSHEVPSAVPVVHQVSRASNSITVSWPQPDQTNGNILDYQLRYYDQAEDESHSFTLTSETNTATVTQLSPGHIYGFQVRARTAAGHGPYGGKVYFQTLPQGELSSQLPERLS
The description is as above. The note with it: coated protein 1 nM. The class given is binding. A digest of the protocol:
as §1
As for B1, the “hEphB6-SEAP-: absorbance at 450 nm, percentage with respect to hEphA4-SEAP-His as 100%” value came to 4.8%.
Regarding B2, the “hEphB6-SEAP-: absorbance at 450 nm, percentage with respect to hEphA4-SEAP-His as 100%” value came out at 4.7%.
For B3, the “hEphB6-SEAP-: absorbance at 450 nm, percentage with respect to hEphA4-SEAP-His as 100%” value was 4.7%.
For the molecule B4, the “hEphB6-SEAP-: absorbance at 450 nm, percentage with respect to hEphA4-SEAP-His as 100%” value came out at 5.2%.
Take B5: the “hEphB6-SEAP-: absorbance at 450 nm, percentage with respect to hEphA4-SEAP-His as 100%” value was 5.2%.
The same measure, in the same setting: the result for B6 reads 4.5%.
In the case of B7, the “hEphB6-SEAP-: absorbance at 450 nm, percentage with respect to hEphA4-SEAP-His as 100%” value was 4.7%.
Regarding B8, the “hEphB6-SEAP-: absorbance at 450 nm, percentage with respect to hEphA4-SEAP-His as 100%” value is listed as 5.3%.
For the molecule B9, the “hEphB6-SEAP-: absorbance at 450 nm, percentage with respect to hEphA4-SEAP-His as 100%” value is on record as 5.2%.

A further test deals with T4, human EphB3 (Homo sapiens, UniProt P54753).
T4 construct: a protein of the extracellular region of each human Eph receptor fused with the SEAP protein and the His tag; made in house; host or cells: Expi293F cells
T4 sequence (P54753 34-559 limits assumed): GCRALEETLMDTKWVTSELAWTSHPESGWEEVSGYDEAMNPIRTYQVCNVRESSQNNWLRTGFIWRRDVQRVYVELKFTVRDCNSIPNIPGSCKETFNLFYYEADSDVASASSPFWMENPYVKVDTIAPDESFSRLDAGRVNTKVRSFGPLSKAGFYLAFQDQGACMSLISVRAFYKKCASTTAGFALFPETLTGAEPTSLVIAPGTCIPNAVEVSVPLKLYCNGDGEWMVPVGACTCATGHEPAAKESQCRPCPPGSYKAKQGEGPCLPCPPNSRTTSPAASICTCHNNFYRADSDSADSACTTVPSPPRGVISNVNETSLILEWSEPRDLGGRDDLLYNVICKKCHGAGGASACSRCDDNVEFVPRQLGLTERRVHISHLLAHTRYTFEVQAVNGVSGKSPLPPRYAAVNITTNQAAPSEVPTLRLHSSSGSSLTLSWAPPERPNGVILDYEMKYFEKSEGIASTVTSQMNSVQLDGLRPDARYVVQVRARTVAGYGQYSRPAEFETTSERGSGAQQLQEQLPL
The test is described as above. Particulars: coated protein 1 nM. The class given is binding. The method, boiled down:
as §1
For the molecule B1, the “hEphB3-SEAP-: absorbance at 450 nm, percentage with respect to hEphA4-SEAP-His as 100%” value amounted to 4.7%.
Regarding B2, the “hEphB3-SEAP-: absorbance at 450 nm, percentage with respect to hEphA4-SEAP-His as 100%” value was determined as 4.7%.
Same read-out and setting: the result for B3 reads 4.7%; that for B4, 5.2%; that for B5, 5.2%.
As for B6, the “hEphB3-SEAP-: absorbance at 450 nm, percentage with respect to hEphA4-SEAP-His as 100%” value came out at 4.6%.
With B7, the “hEphB3-SEAP-: absorbance at 450 nm, percentage with respect to hEphA4-SEAP-His as 100%” value came to 4.9%.
Still for that read-out and setting: the result for B8 reads 5.0%.
On the same count and under the same terms, the result for B9 reads 5.0%.
